From article PMC4191421
Values joined by “and” are separate entries in the source; they are usually repeats but may differ in a detail not shown here. Identical values can stand only once.

Assays:
[1] = target: BLM RecQ-core (core-BLM) (human) (UniProt P54132); experiment: smFRET (GQ unfolding); conditions: smFRET: 150 mM K+ (or 50 mM K+, 50/150 mM Na+), 5 mM Mg2+, pH 7.5, EMSA: 50 mM K+, 50 mM Tris-HCl pH 7.5, 1 mM DTT, 22 C; for binding signal: 150 mM K+, saturating BLM; for binding signal (% unfolded at 25 nM): 50 mM Na+
Sequence of BLM RecQ-core (core-BLM) (human) (P54132 642-1290): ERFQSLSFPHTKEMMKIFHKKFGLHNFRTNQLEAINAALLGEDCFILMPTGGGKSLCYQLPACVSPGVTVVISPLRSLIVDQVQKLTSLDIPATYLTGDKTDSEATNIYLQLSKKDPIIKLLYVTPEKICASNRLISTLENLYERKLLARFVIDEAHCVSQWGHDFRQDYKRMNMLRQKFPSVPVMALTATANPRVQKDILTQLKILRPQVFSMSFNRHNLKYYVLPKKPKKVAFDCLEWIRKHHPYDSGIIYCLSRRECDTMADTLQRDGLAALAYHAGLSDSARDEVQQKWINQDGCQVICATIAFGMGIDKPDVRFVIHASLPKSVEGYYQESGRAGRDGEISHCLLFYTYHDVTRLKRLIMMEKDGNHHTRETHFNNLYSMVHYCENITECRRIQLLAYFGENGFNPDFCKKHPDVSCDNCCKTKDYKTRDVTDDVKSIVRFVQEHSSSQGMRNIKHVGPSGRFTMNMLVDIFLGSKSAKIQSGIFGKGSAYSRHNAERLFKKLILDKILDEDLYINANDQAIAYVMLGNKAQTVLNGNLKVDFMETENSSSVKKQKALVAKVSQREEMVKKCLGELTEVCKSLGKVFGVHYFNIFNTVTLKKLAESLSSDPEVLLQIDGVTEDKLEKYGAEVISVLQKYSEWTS

[2] = target: BLM RecQ-core (core-BLM) (human) (UniProt P54132); experiment: smFRET; conditions: strand 2 is RNA, smFRET: 150 mM K+ (or 50 mM K+, 50/150 mM Na+), 5 mM Mg2+, pH 7.5, EMSA: 50 mM K+, 50 mM Tris-HCl pH 7.5, 1 mM DTT, 22 C
[3] = target: BLM RecQ-core (core-BLM) (human) (UniProt P54132); experiment: smFRET; conditions: smFRET: 150 mM K+ (or 50 mM K+, 50/150 mM Na+), 5 mM Mg2+, pH 7.5, EMSA: 50 mM K+, 50 mM Tris-HCl pH 7.5, 1 mM DTT, 22 C
WRN (human) = WRN (human) (UniProt Q14191); experiment: smFRET (GQ unfolding); conditions: 50 mM Na+, strand 2 is RNA, smFRET: 150 mM K+ (or 50 mM K+, 50/150 mM Na+), 5 mM Mg2+, pH 7.5, EMSA: 50 mM K+, 50 mM Tris-HCl pH 7.5, 1 mM DTT, 22 C
Sequence of WRN (human) (Q14191 whole entry): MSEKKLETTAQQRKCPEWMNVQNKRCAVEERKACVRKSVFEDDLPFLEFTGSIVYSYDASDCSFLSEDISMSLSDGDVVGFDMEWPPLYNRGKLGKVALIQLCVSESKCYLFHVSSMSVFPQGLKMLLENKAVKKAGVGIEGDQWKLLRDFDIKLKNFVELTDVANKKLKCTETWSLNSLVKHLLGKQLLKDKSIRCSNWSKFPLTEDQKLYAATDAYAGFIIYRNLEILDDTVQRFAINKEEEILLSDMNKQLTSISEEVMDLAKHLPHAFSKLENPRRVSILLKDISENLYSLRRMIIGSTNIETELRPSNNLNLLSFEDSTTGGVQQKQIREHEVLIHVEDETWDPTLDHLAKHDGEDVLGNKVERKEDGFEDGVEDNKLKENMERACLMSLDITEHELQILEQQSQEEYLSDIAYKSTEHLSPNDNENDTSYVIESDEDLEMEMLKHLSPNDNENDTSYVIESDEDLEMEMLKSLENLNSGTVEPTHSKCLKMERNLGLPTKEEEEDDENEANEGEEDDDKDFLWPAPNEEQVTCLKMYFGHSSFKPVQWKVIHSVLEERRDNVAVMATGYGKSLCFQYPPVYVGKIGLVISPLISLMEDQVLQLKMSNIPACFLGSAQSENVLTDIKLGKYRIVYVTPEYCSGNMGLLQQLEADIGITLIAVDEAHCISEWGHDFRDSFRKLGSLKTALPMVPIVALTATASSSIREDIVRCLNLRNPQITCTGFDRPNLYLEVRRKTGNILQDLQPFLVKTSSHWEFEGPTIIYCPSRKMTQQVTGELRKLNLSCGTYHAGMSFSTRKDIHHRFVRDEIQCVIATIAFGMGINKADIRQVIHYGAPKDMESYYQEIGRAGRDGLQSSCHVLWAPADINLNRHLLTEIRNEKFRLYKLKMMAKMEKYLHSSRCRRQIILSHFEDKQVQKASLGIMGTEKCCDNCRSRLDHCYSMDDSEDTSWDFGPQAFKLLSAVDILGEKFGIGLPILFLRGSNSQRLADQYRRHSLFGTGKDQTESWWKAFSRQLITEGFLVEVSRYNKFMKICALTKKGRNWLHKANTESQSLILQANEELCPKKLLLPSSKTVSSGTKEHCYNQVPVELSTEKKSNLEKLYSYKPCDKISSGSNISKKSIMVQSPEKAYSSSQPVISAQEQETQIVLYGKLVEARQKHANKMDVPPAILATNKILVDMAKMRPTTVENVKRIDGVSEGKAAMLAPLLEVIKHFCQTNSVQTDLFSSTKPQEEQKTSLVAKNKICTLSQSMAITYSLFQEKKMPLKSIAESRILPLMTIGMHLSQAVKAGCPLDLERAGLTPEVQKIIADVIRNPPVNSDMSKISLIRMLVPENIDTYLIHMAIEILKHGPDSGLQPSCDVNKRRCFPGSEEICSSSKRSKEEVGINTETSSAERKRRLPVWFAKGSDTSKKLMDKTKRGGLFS

[4] = target: BLM RecQ-core (core-BLM) (human) (UniProt P54132); experiment: smFRET (GQ unfolding titration, Langmuir); conditions: strand 2 is RNA, smFRET: 150 mM K+ (or 50 mM K+, 50/150 mM Na+), 5 mM Mg2+, pH 7.5, EMSA: 50 mM K+, 50 mM Tris-HCl pH 7.5, 1 mM DTT, 22 C
[5] = nt-free, 150 mM Na+, strand 2 is RNA

“TGGCGACGGCAGCGAGGCTTGGGTGGGTGGGTGGGTTTTTTTTTTTT / GCCUCGCUGCCGUCGCCA [pd-3Ly1Lp12T]” was tested, and the binding signal (% unfolded at 1 uM) ([1]; strand 2 is RNA) was 46 and 58.
With “TGGCGACGGCAGCGAGGCTAGGGTTAGGGTTAGGGTTAGGGTTTTTTTTTTTTTTT / GCCUCGCUGCCGUCGCCA [pd-hGQ15T]” the binding signal ([1]; ADP, strand 2 is RNA) was 22 % unfolded, the binding signal ([1]; ATPgS, strand 2 is RNA) was 57 % unfolded and the binding signal ([1]; nt-free, strand 2 is RNA) was 48 % unfolded.
“TGGCGACGGCAGCGAGGCTTTTTTTTTTTTTTT / GCCUCGCUGCCGUCGCCA [pd-polyT15]” was tested, and the binding signal (% bound at 1 uM) [2] was 36, the binding signal (% bound at 1 uM) ([3]; 1 mM ADP, 150 mM K+, strand 2 is RNA) was 12 and the binding signal (fold higher Keq in 150 vs 50 mM Na+) ([3]; nt-free, strand 2 is RNA) was 4.7. It also gave a binding signal (% bound at 1 uM) ([3]; strand 2 is RNA) of 21.
“TTTTTTTTTTTTTTTTGGCGACGGCAGCGAGGC / GCCTCGCTGCCGTCGCCA [pd-polyT15-5']” gave a binding signal (% bound at 1 uM) ([3]; 1 mM ATPgS, 50 mM K+) of 53.
“TTTTTTTTTTTTGGGTTAGGGTTAGGGTTAGGGTTTGGCGACGGCAGCGAGGC / GCCTCGCTGCCGTCGCCA [pd-hGQ12T-5']” was tested, and the binding signal (% unfolded at 1 uM) ([1]; ATPgS, 50 mM K+) was 30 and the binding signal (% unfolded at 1 uM) ([1]; nt-free, 50 mM K+) was 21.
“TGGCGACGGCAGCGAGGCTAGGGTTAGGGTTAGGGTTAGGGTTTTTTTTTTTT / GCCUCGCUGCCGUCGCCA [pd-hGQ12T]” gave a binding signal (% unfolded at 25 nM) ([1]; ATPgS, strand 2 is RNA) of 25, a binding signal (% unfolded at 25 nM) ([1]; nt-free, strand 2 is RNA) of 18 and a binding signal (% unfolded at 300 nM) [1, 5] of 17. For the same sequence, the binding signal (% unfolded at 1000 nM) [1, 5] was 38, the binding signal (% unfolded at 25 nM) (WRN (human); ATPgS) was 25 and the binding signal (% unfolded at 25 nM) (WRN (human); nt-free) was 8. For the same sequence, the K half ([4]; 1 mM ADP, 150 mM K+, alpha 32%) was 55 nM, the K half ([4]; 1 mM ATPgS, 150 mM K+, alpha 53%) was 108 nM and the K half ([4]; nt-free, 50 mM K+, alpha 55%) was 28 nM. For the same sequence, the K half ([4]; nt-free, 150 mM K+, alpha 49%) was 305 nM.
